According to the Immune Epitope Database (IEDB):
Values belong to the sequence of their own block, whether it stands above or below them.

What was measured:
HLA-A*01:01 = assay: IEDB peptide-MHC binding, purified MHC/competitive/radioactivity; filed as Kd, often an IC50 or EC50 that approximates it; ≥ and ≤ were set here for values at or beyond the usual limits of such assays
HLA-A*23:01 = assay: as above
HLA-A*24:02 [1] = assay: as above
HLA-A*26:01 = assay: as above
HLA-A*29:02 = assay: as above
HLA-A*30:02 = assay: as above
HLA-A*32:01 = assay: as above
HLA-B*53:01 = assay: as above
HLA-A*24:02 [2] = assay: IEDB peptide-MHC binding, purified MHC/competitive/fluorescence; ≥ and ≤ were set here for values at or beyond the usual limits of such assays; conditions: source organism: Zaire ebolavirus
HLA-A*02:01 = assay: as above; conditions: source organism: Zaire ebolavirus
HLA-A*02:03 = assay: IEDB peptide-MHC binding, purified MHC/competitive/radioactivity; filed as Kd, often an IC50 or EC50 that approximates it; ≥ and ≤ were set here for values at or beyond the usual limits of such assays; conditions: source organism: Dengue virus 4 Philippines/H241/1956
HLA-B*44:02 = assay: as above; conditions: source organism: Dengue virus 2 Jamaica/1409/1983
HLA-B*44:03 = assay: as above; conditions: source organism: Dengue virus 2 Jamaica/1409/1983
HLA-A*03:01 = assay: as above; conditions: source organism: Triticum aestivum
HLA-A*11:01 = assay: as above; conditions: source organism: Triticum aestivum
HLA-A*31:01 = assay: as above; conditions: source organism: Triticum aestivum
HLA-A*33:01 = assay: as above; conditions: source organism: Triticum aestivum
HLA-A*68:01 = assay: as above; conditions: source organism: Triticum aestivum
[3] = source organism: Triticum aestivum
[4] = source organism: Vaccinia virus WR
[5] = source organism: Dengue virus 2 Jamaica/1409/1983
[6] = source organism: Dengue virus 2 Peru/IQT2913/1996
[7] = source organism: SARS coronavirus Tor2
[8] = source organism: Mammarenavirus guanaritoense
[9] = source organism: Mammarenavirus lassaense

Kd (HLA-A*01:01; [3]): ≥ 48900 nM | Kd (HLA-A*23:01; [3]): 19800 nM | Kd (HLA-A*24:02 [1]; [3]): 676 nM | Kd (HLA-A*26:01; [3]): ≥ 25900 nM | Kd (HLA-A*29:02; [3]): 1530 nM | Kd (HLA-A*30:02; [3]): 185 nM
Sequence: QFPGQQQPF

Sequence: QILASILSI
Kd (HLA-A*32:01; [4]): 22.1 nM

Sequence: QILLMRTTW
Kd (HLA-A*32:01; source organism: Dengue virus 1 Brazil/97-11/1997): 22 nM

Sequence: QPTELKYSW
Kd (HLA-B*53:01; [5]): 11 nM

Sequence: QPTELRYSW
Kd (HLA-B*53:01; [6]): 52.6 nM

Sequence: QRWGGTCHI
IC50 (HLA-A*24:02 [2]): 43300 nM

Sequence: QTQSRPIQN
IC50 (HLA-A*24:02 [2]): ≥ 128000 nM

Sequence: RHLIFSYAF
Kd (HLA-A*32:01; [4]): 13.6 nM

Sequence: RTFLIDLAF
Kd (HLA-A*32:01; [4]): 0.48 nM

Sequence: RTFNRTHYW
Kd (HLA-A*32:01; [4]): 0.243 nM

Sequence: RTLAAMPEE
IC50 (HLA-A*02:01): ≥ 351000 nM | IC50 (HLA-A*24:02 [2]): 6750 nM

Sequence: RTYGVNYTF
Kd (HLA-A*32:01; [4]): 0.261 nM

Sequence: RVLFNNFKI
Kd (HLA-A*32:01; [4]): 0.885 nM

Sequence: SHLTTLATI
IC50 (HLA-A*02:01): 13200 nM | IC50 (HLA-A*24:02 [2]): 402 nM

Sequence: SQQKADWIPL
Kd (HLA-A*32:01; [5]): 2790 nM

Sequence: SWFITQRNFF
Kd (HLA-A*01:01; [7]): 828 nM | Kd (HLA-A*23:01; [7]): 0.0458 nM | Kd (HLA-A*24:02 [1]; [7]): 0.035 nM | Kd (HLA-A*26:01; [7]): 12500 nM | Kd (HLA-A*29:02; [7]): 53.2 nM | Kd (HLA-A*30:02; [7]): 1030 nM

Sequence: TLYAVATTI
Kd (HLA-A*02:03): 11.2 nM | Kd (HLA-A*32:01; source organism: Dengue virus 4 Philippines/H241/1956): 356 nM

Sequence: TPEGIIPSMF
Kd (HLA-B*53:01; [5]): 417 nM

Sequence: TTELRTFSI
IC50 (HLA-A*02:01): 68300 nM | IC50 (HLA-A*24:02 [2]): 12200 nM

Sequence: TTQTSALSI
Kd (HLA-A*32:01; [4]): 145 nM

Sequence: TVMAFHLTT
Kd (HLA-A*32:01; [6]): 19200 nM

Sequence: VEPGQLKLNW
Kd (HLA-B*44:02): 389 nM | Kd (HLA-B*44:03): 63.2 nM

Sequence: VFQAKSAFV
Kd (HLA-A*01:01; [8]): ≥ 31400 nM | Kd (HLA-A*23:01; [8]): 855 nM | Kd (HLA-A*24:02 [1]; [8]): 1060 nM | Kd (HLA-A*26:01; [8]): ≥ 77900 nM | Kd (HLA-A*29:02; [8]): ≥ 78900 nM | Kd (HLA-A*30:02; [8]): 1050 nM

Sequence: VFYLYLTFYF
Kd (HLA-A*01:01; [7]): 566 nM | Kd (HLA-A*23:01; [7]): 0.0611 nM | Kd (HLA-A*24:02 [1]; [7]): 0.0798 nM | Kd (HLA-A*26:01; [7]): 621 nM | Kd (HLA-A*29:02; [7]): 0.0415 nM | Kd (HLA-A*30:02; [7]): 12400 nM

Sequence: VMPLSAPTL
Kd (HLA-A*01:01; [7]): ≥ 78100 nM | Kd (HLA-A*23:01; [7]): 6450 nM | Kd (HLA-A*24:02 [1]; [7]): 13300 nM | Kd (HLA-A*26:01; [7]): ≥ 77900 nM | Kd (HLA-A*29:02; [7]): 7050 nM | Kd (HLA-A*30:02; [7]): ≥ 75000 nM

Sequence: VNNLEHGLF
IC50 (HLA-A*24:02 [2]): 25400 nM

Kd (HLA-A*01:01; [3]): 38.5 nM | Kd (HLA-A*03:01): 2340 nM | Kd (HLA-A*11:01): 138 nM | Kd (HLA-A*23:01; [3]): ≥ 42400 nM | Kd (HLA-A*24:02 [1]; [3]): ≥ 70300 nM | Kd (HLA-A*26:01; [3]): ≥ 43000 nM | Kd (HLA-A*29:02; [3]): 2840 nM | Kd (HLA-A*30:02; [3]): 6090 nM | Kd (HLA-A*31:01): ≥ 70000 nM | Kd (HLA-A*33:01): ≥ 70000 nM | Kd (HLA-A*68:01): ≥ 70200 nM
Sequence: VSFQQPLQQY

Sequence: YAPFARLLN
IC50 (HLA-A*02:01): ≥ 87800 nM | IC50 (HLA-A*24:02 [2]): 19300 nM

Sequence: YFESYVRPFV
Kd (HLA-A*01:01; [9]): ≥ 70400 nM | Kd (HLA-A*23:01; [9]): 1890 nM | Kd (HLA-A*24:02 [1]; [9]): 12800 nM | Kd (HLA-A*26:01; [9]): ≥ 46100 nM | Kd (HLA-A*29:02; [9]): 3940 nM | Kd (HLA-A*30:02; [9]): 4250 nM

Sequence: YFTNDVSFL
Kd (HLA-A*01:01; [7]): 12900 nM | Kd (HLA-A*23:01; [7]): 18300 nM | Kd (HLA-A*24:02 [1]; [7]): ≥ 78100 nM | Kd (HLA-A*26:01; [7]): 16100 nM | Kd (HLA-A*29:02; [7]): ≥ 75000 nM | Kd (HLA-A*30:02; [7]): ≥ 96800 nM

Sequence: YIAVNDKALY
Kd (HLA-A*01:01; [7]): 12.9 nM | Kd (HLA-A*23:01; [7]): ≥ 55000 nM | Kd (HLA-A*24:02 [1]; [7]): ≥ 70300 nM | Kd (HLA-A*26:01; [7]): 2600 nM | Kd (HLA-A*29:02; [7]): 8.81 nM | Kd (HLA-A*30:02; [7]): 141 nM

Sequence: YVQRFFLRV
Kd (HLA-A*01:01; [8]): 1020 nM | Kd (HLA-A*23:01; [8]): 4270 nM | Kd (HLA-A*24:02 [1]; [8]): ≥ 26600 nM | Kd (HLA-A*26:01; [8]): ≥ 77900 nM | Kd (HLA-A*29:02; [8]): 767 nM | Kd (HLA-A*30:02; [8]): 732 nM
